Measured values published in patent publication US20180009871A1 (INTARCIA THERAPEUTICS, published 2018).
Where no end group is shown, it is not given here. [ ]: non-standard residue; d: D form. Aib = CC(C)(N)C(=O)O

Tests used:
[1] = target: human glucagon receptor (GCGR) (human, UniProt P47871 26-477); experiment: cell-based or functional assay
[2] = target: human GLP-1 receptor (GLP-1R) (human, UniProt P43220 24-463); experiment: cell-based or functional assay
Sequence of human GLP-1 receptor (GLP-1R) (P43220 24-463): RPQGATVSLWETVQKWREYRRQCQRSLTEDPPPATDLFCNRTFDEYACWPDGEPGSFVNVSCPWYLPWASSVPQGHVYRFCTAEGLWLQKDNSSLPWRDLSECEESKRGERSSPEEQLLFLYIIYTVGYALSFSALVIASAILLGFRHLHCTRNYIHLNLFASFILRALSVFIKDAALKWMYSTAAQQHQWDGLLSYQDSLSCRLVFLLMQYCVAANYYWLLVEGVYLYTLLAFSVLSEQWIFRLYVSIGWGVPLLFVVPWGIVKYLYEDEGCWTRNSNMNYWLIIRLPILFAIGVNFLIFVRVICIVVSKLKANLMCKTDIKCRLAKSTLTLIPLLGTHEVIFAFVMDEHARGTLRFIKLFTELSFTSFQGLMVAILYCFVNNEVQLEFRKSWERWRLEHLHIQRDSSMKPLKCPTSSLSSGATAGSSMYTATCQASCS

B1: Compound A59 (peptide)
peptide: YSHGTFTSDYSKYLD[Aib]KRAQEFV[Aib]WLEDEPSSKQPPPS-OH
modifications: N-terminus assumed
SMILES: CC(C)C[C@H](NC(=O)[C@H](Cc1ccc(O)cc1)NC(=O)[C@H](CCCCN)NC(=O)[C@H](CO)NC(=O)[C@H](Cc1ccc(O)cc1)NC(=O)[C@H](CC(=O)O)NC(=O)[C@H](CO)NC(=O)[C@@H](NC(=O)[C@H](Cc1ccccc1)NC(=O)[C@@H](NC(=O)CNC(=O)[C@H](Cc1c[nH]cn1)NC(=O)[C@H](CO)NC(=O)[C@@H](N)Cc1ccc(O)cc1)[C@@H](C)O)[C@@H](C)O)C(=O)N[C@@H](CC(=O)O)C(=O)NC(C)(C)C(=O)N[C@@H](CCCCN)C(=O)N[C@@H](CCCNC(=N)N)C(=O)N[C@@H](C)C(=O)N[C@@H](CCC(N)=O)C(=O)N[C@@H](CCC(=O)O)C(=O)N[C@@H](Cc1ccccc1)C(=O)N[C@H](C(=O)NC(C)(C)C(=O)N[C@@H](Cc1c[nH]c2ccccc12)C(=O)N[C@@H](CC(C)C)C(=O)N[C@@H](CCC(=O)O)C(=O)N[C@@H](CC(=O)O)C(=O)N[C@@H](CCC(=O)O)C(=O)N1CCC[C@H]1C(=O)N[C@@H](CO)C(=O)N[C@@H](CO)C(=O)N[C@@H](CCCCN)C(=O)N[C@@H](CCC(N)=O)C(=O)N1CCC[C@H]1C(=O)N1CCC[C@H]1C(=O)N1CCC[C@H]1C(=O)N[C@@H](CO)C(=O)O)C(C)C
hGCGR pEC50 (cAMP) [1]: 12.2 pEC50 | hGLP1 pEC50 (cAMP) [2]: < 9 pEC50

YSHGTFTSDYSKYLDSARAQEFVKWLEDEPSSGKPPPS-OH [Compound A61]
hGCGR pEC50 (cAMP) [1]: 11.4 pEC50 | hGLP1 pEC50 (cAMP) [2]: < 9 pEC50

B2: Compound A56 (peptide)
peptide: YSHGTFTSDYSKYLD[Aib]KRAQEFV[Aib]WLEDEPKSKAPPPS-OH
modifications: N-terminus assumed
SMILES: CC(C)C[C@H](NC(=O)[C@H](Cc1ccc(O)cc1)NC(=O)[C@H](CCCCN)NC(=O)[C@H](CO)NC(=O)[C@H](Cc1ccc(O)cc1)NC(=O)[C@H](CC(=O)O)NC(=O)[C@H](CO)NC(=O)[C@@H](NC(=O)[C@H](Cc1ccccc1)NC(=O)[C@@H](NC(=O)CNC(=O)[C@H](Cc1c[nH]cn1)NC(=O)[C@H](CO)NC(=O)[C@@H](N)Cc1ccc(O)cc1)[C@@H](C)O)[C@@H](C)O)C(=O)N[C@@H](CC(=O)O)C(=O)NC(C)(C)C(=O)N[C@@H](CCCCN)C(=O)N[C@@H](CCCNC(=N)N)C(=O)N[C@@H](C)C(=O)N[C@@H](CCC(N)=O)C(=O)N[C@@H](CCC(=O)O)C(=O)N[C@@H](Cc1ccccc1)C(=O)N[C@H](C(=O)NC(C)(C)C(=O)N[C@@H](Cc1c[nH]c2ccccc12)C(=O)N[C@@H](CC(C)C)C(=O)N[C@@H](CCC(=O)O)C(=O)N[C@@H](CC(=O)O)C(=O)N[C@@H](CCC(=O)O)C(=O)N1CCC[C@H]1C(=O)N[C@@H](CCCCN)C(=O)N[C@@H](CO)C(=O)N[C@@H](CCCCN)C(=O)N[C@@H](C)C(=O)N1CCC[C@H]1C(=O)N1CCC[C@H]1C(=O)N1CCC[C@H]1C(=O)N[C@@H](CO)C(=O)O)C(C)C
hGCGR pEC50 (cAMP) [1]: 12.3 pEC50 | hGLP1 pEC50 (cAMP) [2]: < 9 pEC50

YTHGTFTSDYSKYLDSARAQEFVKWLEDEPSSGAPPPS-OH [Compound A63]
hGCGR pEC50 (cAMP) [1]: 10.4 pEC50 | hGLP1 pEC50 (cAMP) [2]: < 9 pEC50

B3: Compound A64 (peptide)
peptide: YTHGTFTSDYSKYLD[Aib]ARAQEFV[Aib]WLEDEPSSGAPPPS-OH
modifications: N-terminus assumed
SMILES: CC(C)C[C@H](NC(=O)[C@H](Cc1ccc(O)cc1)NC(=O)[C@H](CCCCN)NC(=O)[C@H](CO)NC(=O)[C@H](Cc1ccc(O)cc1)NC(=O)[C@H](CC(=O)O)NC(=O)[C@H](CO)NC(=O)[C@@H](NC(=O)[C@H](Cc1ccccc1)NC(=O)[C@@H](NC(=O)CNC(=O)[C@H](Cc1c[nH]cn1)NC(=O)[C@@H](NC(=O)[C@@H](N)Cc1ccc(O)cc1)[C@@H](C)O)[C@@H](C)O)[C@@H](C)O)C(=O)N[C@@H](CC(=O)O)C(=O)NC(C)(C)C(=O)N[C@@H](C)C(=O)N[C@@H](CCCNC(=N)N)C(=O)N[C@@H](C)C(=O)N[C@@H](CCC(N)=O)C(=O)N[C@@H](CCC(=O)O)C(=O)N[C@@H](Cc1ccccc1)C(=O)N[C@H](C(=O)NC(C)(C)C(=O)N[C@@H](Cc1c[nH]c2ccccc12)C(=O)N[C@@H](CC(C)C)C(=O)N[C@@H](CCC(=O)O)C(=O)N[C@@H](CC(=O)O)C(=O)N[C@@H](CCC(=O)O)C(=O)N1CCC[C@H]1C(=O)N[C@@H](CO)C(=O)N[C@@H](CO)C(=O)NCC(=O)N[C@@H](C)C(=O)N1CCC[C@H]1C(=O)N1CCC[C@H]1C(=O)N1CCC[C@H]1C(=O)N[C@@H](CO)C(=O)O)C(C)C
hGCGR pEC50 (cAMP) [1]: 10.7 pEC50 | hGLP1 pEC50 (cAMP) [2]: < 9 pEC50

B4: Compound A60 (peptide)
peptide: YTHGTFTSDYSKYLD[Aib]KRAQEFV[Aib]WLEDEPSSGKPPPS-OH
modifications: N-terminus assumed
SMILES: CC(C)C[C@H](NC(=O)[C@H](Cc1ccc(O)cc1)NC(=O)[C@H](CCCCN)NC(=O)[C@H](CO)NC(=O)[C@H](Cc1ccc(O)cc1)NC(=O)[C@H](CC(=O)O)NC(=O)[C@H](CO)NC(=O)[C@@H](NC(=O)[C@H](Cc1ccccc1)NC(=O)[C@@H](NC(=O)CNC(=O)[C@H](Cc1c[nH]cn1)NC(=O)[C@@H](NC(=O)[C@@H](N)Cc1ccc(O)cc1)[C@@H](C)O)[C@@H](C)O)[C@@H](C)O)C(=O)N[C@@H](CC(=O)O)C(=O)NC(C)(C)C(=O)N[C@@H](CCCCN)C(=O)N[C@@H](CCCNC(=N)N)C(=O)N[C@@H](C)C(=O)N[C@@H](CCC(N)=O)C(=O)N[C@@H](CCC(=O)O)C(=O)N[C@@H](Cc1ccccc1)C(=O)N[C@H](C(=O)NC(C)(C)C(=O)N[C@@H](Cc1c[nH]c2ccccc12)C(=O)N[C@@H](CC(C)C)C(=O)N[C@@H](CCC(=O)O)C(=O)N[C@@H](CC(=O)O)C(=O)N[C@@H](CCC(=O)O)C(=O)N1CCC[C@H]1C(=O)N[C@@H](CO)C(=O)N[C@@H](CO)C(=O)NCC(=O)N[C@@H](CCCCN)C(=O)N1CCC[C@H]1C(=O)N1CCC[C@H]1C(=O)N1CCC[C@H]1C(=O)N[C@@H](CO)C(=O)O)C(C)C
hGCGR pEC50 (cAMP) [1]: 11.3 pEC50 | hGLP1 pEC50 (cAMP) [2]: < 9 pEC50

B5: Compound A57 (peptide)
peptide: YSHGTFTSDYSKYLD[Aib]KRAQEFV[Aib]WLEDEPKSKQPPPS-OH
modifications: N-terminus assumed
SMILES: CC(C)C[C@H](NC(=O)[C@H](Cc1ccc(O)cc1)NC(=O)[C@H](CCCCN)NC(=O)[C@H](CO)NC(=O)[C@H](Cc1ccc(O)cc1)NC(=O)[C@H](CC(=O)O)NC(=O)[C@H](CO)NC(=O)[C@@H](NC(=O)[C@H](Cc1ccccc1)NC(=O)[C@@H](NC(=O)CNC(=O)[C@H](Cc1c[nH]cn1)NC(=O)[C@H](CO)NC(=O)[C@@H](N)Cc1ccc(O)cc1)[C@@H](C)O)[C@@H](C)O)C(=O)N[C@@H](CC(=O)O)C(=O)NC(C)(C)C(=O)N[C@@H](CCCCN)C(=O)N[C@@H](CCCNC(=N)N)C(=O)N[C@@H](C)C(=O)N[C@@H](CCC(N)=O)C(=O)N[C@@H](CCC(=O)O)C(=O)N[C@@H](Cc1ccccc1)C(=O)N[C@H](C(=O)NC(C)(C)C(=O)N[C@@H](Cc1c[nH]c2ccccc12)C(=O)N[C@@H](CC(C)C)C(=O)N[C@@H](CCC(=O)O)C(=O)N[C@@H](CC(=O)O)C(=O)N[C@@H](CCC(=O)O)C(=O)N1CCC[C@H]1C(=O)N[C@@H](CCCCN)C(=O)N[C@@H](CO)C(=O)N[C@@H](CCCCN)C(=O)N[C@@H](CCC(N)=O)C(=O)N1CCC[C@H]1C(=O)N1CCC[C@H]1C(=O)N1CCC[C@H]1C(=O)N[C@@H](CO)C(=O)O)C(C)C
hGCGR pEC50 (cAMP) [1]: 12 pEC50 | hGLP1 pEC50 (cAMP) [2]: < 9 pEC50

B6: Compound A58 (peptide)
peptide: YSHGTFTSDYSKYLD[Aib]KRAQEFV[Aib]WLEDEPKSKSPPPS-OH
modifications: N-terminus assumed
SMILES: CC(C)C[C@H](NC(=O)[C@H](Cc1ccc(O)cc1)NC(=O)[C@H](CCCCN)NC(=O)[C@H](CO)NC(=O)[C@H](Cc1ccc(O)cc1)NC(=O)[C@H](CC(=O)O)NC(=O)[C@H](CO)NC(=O)[C@@H](NC(=O)[C@H](Cc1ccccc1)NC(=O)[C@@H](NC(=O)CNC(=O)[C@H](Cc1c[nH]cn1)NC(=O)[C@H](CO)NC(=O)[C@@H](N)Cc1ccc(O)cc1)[C@@H](C)O)[C@@H](C)O)C(=O)N[C@@H](CC(=O)O)C(=O)NC(C)(C)C(=O)N[C@@H](CCCCN)C(=O)N[C@@H](CCCNC(=N)N)C(=O)N[C@@H](C)C(=O)N[C@@H](CCC(N)=O)C(=O)N[C@@H](CCC(=O)O)C(=O)N[C@@H](Cc1ccccc1)C(=O)N[C@H](C(=O)NC(C)(C)C(=O)N[C@@H](Cc1c[nH]c2ccccc12)C(=O)N[C@@H](CC(C)C)C(=O)N[C@@H](CCC(=O)O)C(=O)N[C@@H](CC(=O)O)C(=O)N[C@@H](CCC(=O)O)C(=O)N1CCC[C@H]1C(=O)N[C@@H](CCCCN)C(=O)N[C@@H](CO)C(=O)N[C@@H](CCCCN)C(=O)N[C@@H](CO)C(=O)N1CCC[C@H]1C(=O)N1CCC[C@H]1C(=O)N1CCC[C@H]1C(=O)N[C@@H](CO)C(=O)O)C(C)C
hGCGR pEC50 (cAMP) [1]: 12.2 pEC50 | hGLP1 pEC50 (cAMP) [2]: < 9 pEC50

B7: Compound A62 (peptide)
peptide: YTHGTFTSDYSKYLD[Aib]KRAQEFV[Aib]WLEDEPSSGAPPPS-OH
modifications: N-terminus assumed
SMILES: CC(C)C[C@H](NC(=O)[C@H](Cc1ccc(O)cc1)NC(=O)[C@H](CCCCN)NC(=O)[C@H](CO)NC(=O)[C@H](Cc1ccc(O)cc1)NC(=O)[C@H](CC(=O)O)NC(=O)[C@H](CO)NC(=O)[C@@H](NC(=O)[C@H](Cc1ccccc1)NC(=O)[C@@H](NC(=O)CNC(=O)[C@H](Cc1c[nH]cn1)NC(=O)[C@@H](NC(=O)[C@@H](N)Cc1ccc(O)cc1)[C@@H](C)O)[C@@H](C)O)[C@@H](C)O)C(=O)N[C@@H](CC(=O)O)C(=O)NC(C)(C)C(=O)N[C@@H](CCCCN)C(=O)N[C@@H](CCCNC(=N)N)C(=O)N[C@@H](C)C(=O)N[C@@H](CCC(N)=O)C(=O)N[C@@H](CCC(=O)O)C(=O)N[C@@H](Cc1ccccc1)C(=O)N[C@H](C(=O)NC(C)(C)C(=O)N[C@@H](Cc1c[nH]c2ccccc12)C(=O)N[C@@H](CC(C)C)C(=O)N[C@@H](CCC(=O)O)C(=O)N[C@@H](CC(=O)O)C(=O)N[C@@H](CCC(=O)O)C(=O)N1CCC[C@H]1C(=O)N[C@@H](CO)C(=O)N[C@@H](CO)C(=O)NCC(=O)N[C@@H](C)C(=O)N1CCC[C@H]1C(=O)N1CCC[C@H]1C(=O)N1CCC[C@H]1C(=O)N[C@@H](CO)C(=O)O)C(C)C
hGCGR pEC50 (cAMP) [1]: 11.5 pEC50 | hGLP1 pEC50 (cAMP) [2]: < 9 pEC50
